Data as given in publication PMC5627055, “Interactions of the Bacillus subtilis DnaE polymerase with replisomal proteins modulate its activity and fidelity” (Open Biology, 2017).
Each block holds one binder with its values, some of them ahead of it.

How the values were obtained:
DnaE [1] = biological target: T1, DnaE (Bacillus subtilis, UniProt O34623 1-1115); test: EMSA; 10 mM Mg2+; EMSA: 20 mM HEPES pH 7.5, 50 mM NaCl, 10 mM MgCl2, 1 mM DTT, 0.66 nM radiolabelled substrate, 37 C 5 min; 5% native PAGE; conditions: protein: recombinant; tags: N-terminal His6-MBP removed by TEV; 15 bp duplex; 15 nt 5' overhang of template (primer-template)
PolCexo- [2] = biological target: T2, PolCexo- (Bacillus subtilis, UniProt P13267 1-1437, D425A;E427A); test: EMSA; 10 mM Mg2+; no detectable stable complex; EMSA: 20 mM HEPES pH 7.5, 50 mM NaCl, 10 mM MgCl2, 1 mM DTT, 0.66 nM radiolabelled substrate, 37 C 5 min; 5% native PAGE; conditions: protein: recombinant; tags: N-terminal His tag removed by TEV; 15 bp duplex; 15 nt 5' overhang of template (primer-template)
[3] = biological target: T3, Bacillus subtilis PolC polymerase, wild type (B. subtilis, UniProt P13267 1-1437); test: native gel or EMSA; DnaE (1 µM) pre-incubated with radiolabelled primed 3'-mismatch (A:G) DNA substrate (0.66 nM) at 37°C for 5 min, then increasing PolC or PolC_(exo-) (25-1000 nM) and 5 min more at 37°C; 20 mM HEPES pH 7.5, 50 mM NaCl, 10 mM MgCl2, 1 mM DTT; 5% native polyacrylamide gel; ternary template-DnaE-PolC complex read from the shifted DNA; conditions: both partners purified
T3 construct: PolC, DNA polymerase of the C family with internal 3'>5' exonuclease domain, Bacillus subtilis; polC gene cloned into p2BT (p2BT-NT-HT-PolC); The N-terminal His-tag was removed with TEV protease during purification; also called wild-type PolC; source: E. coli BLR(DE3), purified (HisTrap, TEV cleavage, HisTrap flow through, HiTrap Q, Superdex-200); not shown: His-tag, N-terminal, cleaved

[4] = biological target: T4, Bacillus subtilis PolC_(exo-) (D425A/E427A) (B. subtilis, UniProt P13267 1-1437, D425A | E427A); test: as above; conditions: both partners purified
T4 construct: p2BT-NT-HT-PolC_(exo-); source: E. coli BLR(DE3), purified (HisTrap, TEV cleavage, HisTrap flow through, HiTrap Q, Superdex-200); not shown: His-tag, N-terminal, cleaved

DnaE;PolC = DnaE;PolC (Bacillus subtilis;Bacillus subtilis, UniProt O34623;P13267 1-1115;1-1437, |); test: EMSA; 10 mM Mg2+; 1 uM DnaE, 25-1000 nM PolC; ternary complex, then DNA digested by PolC; EMSA: 20 mM HEPES pH 7.5, 50 mM NaCl, 10 mM MgCl2, 1 mM DTT, 0.66 nM radiolabelled substrate, 37 C 5 min; 5% native PAGE; conditions: protein: recombinant;recombinant; tags: N-terminal His6-MBP removed by TEV;N-terminal His tag removed by TEV; copies: 1;1; 14 bp duplex; 3'-terminal primer mismatch; 15 nt 5' overhang of template
DnaE;PolCexo- = DnaE;PolCexo- (Bacillus subtilis;Bacillus subtilis, UniProt O34623;P13267 1-1115;1-1437, |D425A;E427A); test: EMSA; 10 mM Mg2+; 1 uM DnaE, 25-1000 nM PolCexo-; ternary complex; EMSA: 20 mM HEPES pH 7.5, 50 mM NaCl, 10 mM MgCl2, 1 mM DTT, 0.66 nM radiolabelled substrate, 37 C 5 min; 5% native PAGE; conditions: protein: recombinant;recombinant; tags: N-terminal His6-MBP removed by TEV;N-terminal His tag removed by TEV; copies: 1;1; 14 bp duplex; 3'-terminal primer mismatch; 15 nt 5' overhang of template
DnaE [5] = biological target: T1, DnaE; test: EMSA; 10 mM Mg2+; 1 uM DnaE; EMSA: 20 mM HEPES pH 7.5, 50 mM NaCl, 10 mM MgCl2, 1 mM DTT, 0.66 nM radiolabelled substrate, 37 C 5 min; 5% native PAGE; conditions: protein: recombinant; tags: N-terminal His6-MBP removed by TEV; 14 bp duplex; 3'-terminal primer mismatch; 15 nt 5' overhang of template
PolCexo- [6] = biological target: T2, PolCexo-; test: EMSA; 10 mM Mg2+; 1 uM PolCexo-; no detectable stable complex; EMSA: 20 mM HEPES pH 7.5, 50 mM NaCl, 10 mM MgCl2, 1 mM DTT, 0.66 nM radiolabelled substrate, 37 C 5 min; 5% native PAGE; conditions: protein: recombinant; tags: N-terminal His tag removed by TEV; 14 bp duplex; 3'-terminal primer mismatch; 15 nt 5' overhang of template
DnaE [7] = biological target: T1, DnaE; test: EMSA; 10 mM Mg2+; multiple shifted bands; EMSA: 20 mM HEPES pH 7.5, 50 mM NaCl, 10 mM MgCl2, 1 mM DTT, 0.66 nM radiolabelled substrate, 37 C 5 min; 5% native PAGE; conditions: protein: recombinant; tags: N-terminal His6-MBP removed by TEV; label: radiolabel at 5' end; single strand

B1: DNA-primed 30mer template (dsDNA)
DNA 1: ACACACACACACACACACACACACCCCCTT
DNA 2: AAGGGGGTGTGTGTG
- binding result (DnaE [1]): binds
- binding result (PolCexo- [2]): no binding

- binding result [3]: binds
- binding result [4]: binds
B2: Bacillus subtilis DnaE polymerase, wild type (enzyme, B. subtilis, UniProt O34623 1-1115, looked up)
chain: MSFVHLQVHSGYSLLNSAAAVEELVSEADRLGYASLALTDDHVMYGAIQFYKACKARGINPIIGLTASVFTDDSELEAYPLVLLAKSNTGYQNLLKISSVLQSKSKGGLKPKWLHSYREGIIAITPGEKGYIETLLEGGLFEQAAQASLEFQSIFGKGAFYFSYQPFKGNQVLSEQILKLSEETGIPVTATGDVHYIRKEDKAAYRCLKAIKAGEKLTDAPAEDLPDLDLKPLEEMQNIYREHPEALQASVEIAEQCRVDVSLGQTRLPSFPTPDGTSADDYLTDICMEGLRSRFGKPDERYLRRLQYELDVIKRMKFSDYFLIVWDFMKHAHEKGIVTGPGRGSAAGSLVAYVLYITDVDPIKHHLLFERFLNPERVSMPDIDIDFPDTRRDEVIQYVQQKYGAMHVAQIITFGTLAAKAALRDVGRVFGVSPKEADQLAKLIPSRPGMTLDEARQQSPQLDKRLRESSLLQQVYSIARKIEGLPRHASTHAAGVVLSEEPLTDVVPLQEGHEGIYLTQYAMDHLEDLGLLKMDFLGLRNLTLIESITSMIEKEENIKIDLSSISYSDDKTFSLLSKGDTTGIFQLESAGMRSVLKRLKPSGLEDIVAVNALYRPGPMENIPLFIDRKHGRAPVHYPHEDLRSILEDTYGVIVYQEQIMMIASRMAGFSLGEADLLRRAVSKKKKEILDRERSHFVEGCLKKEYSVDTANEVYDLIVKFANYGFNRSHAVAYSMIGCQLAYLKAHYPLYFMCGLLTSVIGNEDKISQYLYEAKGSGIRILPPSVNKSSFPFTVENGSVRYSLRAIKSVGVSAVKDIYKARKEKPFEDLFDFCFRVPSKSVNRKMLEALIFSGAMDEFGQNRATLLASIDVALEHAELFAADDDQMGLFLDESFSIKPKYVETEELPLVDLLAFEKETLGIYFSNHPLSAFRKQLTAQGAVSILQAQRAVKRQLSLGVLLSKIKTIRTKTGQNMAFLTLSDETGEMEAVVFPEQFRQLSPVLREGALLFTAGKCEVRQDKIQFIMSRAELLEDMDAEKAPSVYIKIESSQHSQEILAKIKRILLEHKGETGVYLYYERQKQTIKLPESFHINADHQVLYRLKELLGQKNVVLKQW
notes: DnaE, DNA polymerase of the C family (DnaE3 group), Bacillus subtilis; dnaE gene cloned into p2CT (p2CT-NT-HT-DnaE); also called DnaEWT; source: E. coli BL21 (DE3) Rosetta, purified (HisTrap, TEV cleavage, HisTrap flow through, ammonium sulfate, HiTrap Q); not shown: His6, N-terminal, cleaved

B3: 3'-mismatch (A:G) DNA-primed 30mer template (dsDNA)
DNA 1: ACACACACACACACACACACACACCCCCTT
DNA 2: AAGGGGGTGTGTGTA
- binding result (DnaE;PolC): binds
- binding signal (DnaE;PolCexo-): ~4 fold shifted substrate vs DnaE alone (up to)
- binding result (DnaE [5]): binds
- binding result (PolCexo- [6]): no binding

B4: ssDNA 30mer (ssDNA)
DNA: ACACACACACACACACACACACACCCCCTT
- binding result (DnaE [7]): binds
